For this data set the following is noted: Clostridium pasteurianum; pH 9.08; Thermal; NMR; Sodium borate 100 mM; reversible: Yes; whole UniProt chain shown.

The record followed here is FireProtDB (doi:10.1016/j.bpc.2006.10.013).

B1: Rubredoxin wild type, P00268 (protein)
chain: MKKYTCTVCGYIYNPEDGDPDNGVNPGTDFKDIPDDWVCPLCGVGKDQFEEVEE
For orientation: Tm means the temperature at which the thermal transition is half complete. As to B1, the Tm came out at 107 °C, the “heat capacity change of unfolding” value is 0.5 kcal/mol/K and the “unfolding enthalpy (van 't Hoff)” value was determined as 62 kcal/mol.
